From patent US20050282743A1, “Molecular interactions in cells” (Arbor Vita Corporation, priority 2001, published 2005) come the findings set out here.

What all share (assay): G' assay
Assay [1] has as its target T1, GST-MUPP1 PDZ domain 11 (Homo sapiens (Human)), O75970.
T1 chain: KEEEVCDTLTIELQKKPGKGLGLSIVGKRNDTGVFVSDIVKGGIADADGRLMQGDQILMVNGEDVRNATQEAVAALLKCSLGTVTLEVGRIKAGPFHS

In assay [2] the target is T2, GST-MINT1 PDZ domain 2 (Mus musculus (Mouse)), B2RUJ5.
T2 chain: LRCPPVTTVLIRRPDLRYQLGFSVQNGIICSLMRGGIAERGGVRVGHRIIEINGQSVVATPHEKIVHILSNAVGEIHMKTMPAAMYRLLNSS

Assay [3] has as its target T3, GST-KIAA0382 PDZ domain 1 (Canis lupus familiaris (Dog) (Canis familiaris)), A0A8I3.
T3 chain: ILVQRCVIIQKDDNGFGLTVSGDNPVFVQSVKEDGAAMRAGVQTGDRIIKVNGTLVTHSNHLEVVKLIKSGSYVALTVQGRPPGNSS

Assay [4] deals with T4, GST-KIAA1719 PDZ domain 6 (Homo sapiens (Human)), Q9C0E4.
T4 chain: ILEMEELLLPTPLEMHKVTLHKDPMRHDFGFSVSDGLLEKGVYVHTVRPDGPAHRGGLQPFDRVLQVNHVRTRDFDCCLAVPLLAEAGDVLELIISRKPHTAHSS

Assay [5] addresses T5, GST-MINT1 PDZ domains 1, 2, Q02410.
T5 chain: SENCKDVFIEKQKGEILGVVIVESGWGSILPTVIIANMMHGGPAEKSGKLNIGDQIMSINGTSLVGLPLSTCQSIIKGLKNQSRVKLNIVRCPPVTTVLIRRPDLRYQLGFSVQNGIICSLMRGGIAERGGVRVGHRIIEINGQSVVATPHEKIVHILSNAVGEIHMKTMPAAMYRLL

For assay [6], the target named is T6, GST-AF6 PDZ domain 1 (Homo sapiens (Human)), P55196.
T6 chain: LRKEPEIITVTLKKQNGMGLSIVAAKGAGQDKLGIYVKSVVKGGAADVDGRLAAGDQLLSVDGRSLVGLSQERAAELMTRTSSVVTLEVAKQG

Assay [7] has as its target GST-KIAA1634 PDZ domain 1 (Homo sapiens (Human)), Q5TCQ9.
Assay [8] addresses T7, GST-APXL-1 PDZ domain 1 (Homo sapiens (Human)), Q13796.
T7 chain: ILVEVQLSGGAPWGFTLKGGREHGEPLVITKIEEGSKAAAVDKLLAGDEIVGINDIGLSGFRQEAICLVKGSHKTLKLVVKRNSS

Assay [9] addresses T8, GST-KIAA0807(S) PDZ domain 1 (Homo sapiens (Human)), Q6P0Q8.
T8 chain: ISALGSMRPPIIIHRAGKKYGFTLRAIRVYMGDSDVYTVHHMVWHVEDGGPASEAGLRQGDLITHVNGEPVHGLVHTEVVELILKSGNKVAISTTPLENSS

The target in assay [10] is T9, GST-Shank 1 PDZ domain 1 (Homo sapiens (Human)), Q9UPX8.
T9 chain: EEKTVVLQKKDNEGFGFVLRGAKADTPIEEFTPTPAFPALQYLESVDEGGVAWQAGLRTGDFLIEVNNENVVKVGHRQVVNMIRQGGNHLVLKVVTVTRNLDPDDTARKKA

Assay [11] deals with T10, GST-PDZK1 PDZ domains 2, 3, 4, Q5T2W1.
T10 chain: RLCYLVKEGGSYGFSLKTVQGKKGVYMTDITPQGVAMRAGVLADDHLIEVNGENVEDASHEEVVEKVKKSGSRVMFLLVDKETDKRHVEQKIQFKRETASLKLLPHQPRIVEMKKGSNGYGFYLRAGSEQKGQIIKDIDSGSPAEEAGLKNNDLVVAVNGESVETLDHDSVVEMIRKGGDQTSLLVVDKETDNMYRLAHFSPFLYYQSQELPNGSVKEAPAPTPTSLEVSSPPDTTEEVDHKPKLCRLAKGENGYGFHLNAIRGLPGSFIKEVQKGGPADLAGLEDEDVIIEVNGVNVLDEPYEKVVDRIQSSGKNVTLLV

For assay [12], the target named is T11, GST-Syntrophin 1 alpha PDZ domain 1 (Homo sapiens (Human)), Q13424.
T11 chain: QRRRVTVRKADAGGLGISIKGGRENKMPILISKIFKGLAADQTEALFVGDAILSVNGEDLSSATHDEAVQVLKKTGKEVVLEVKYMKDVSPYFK

Assay [13] concerns the target GST-KIAA807 [GST: P08515].
For assay [14], the target named is T12, GST-MUPP1 PDZ domain 7 (Homo sapiens (Human)), O75970.
T12 chain: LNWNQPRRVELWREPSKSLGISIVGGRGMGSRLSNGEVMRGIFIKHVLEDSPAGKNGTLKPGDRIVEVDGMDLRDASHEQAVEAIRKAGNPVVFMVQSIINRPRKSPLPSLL

Assay [15] addresses T13, GST-MUPP1 PDZ domain 3 (Homo sapiens (Human)), O75970.
T13 chain: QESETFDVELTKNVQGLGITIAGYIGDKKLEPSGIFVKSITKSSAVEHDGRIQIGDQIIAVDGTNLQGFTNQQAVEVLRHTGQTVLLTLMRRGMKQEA

In assay [16] the target is T14, GST-PTPL1 PDZ domain 4 (Homo sapiens (Human)), Q12923.
T14 chain: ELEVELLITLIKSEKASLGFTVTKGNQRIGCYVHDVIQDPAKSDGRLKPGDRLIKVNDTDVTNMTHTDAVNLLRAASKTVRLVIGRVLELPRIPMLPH

In assay [17] the target is T15, GST-MUPP1 PDZ domain 9 (Homo sapiens (Human)), O75970.
T15 chain: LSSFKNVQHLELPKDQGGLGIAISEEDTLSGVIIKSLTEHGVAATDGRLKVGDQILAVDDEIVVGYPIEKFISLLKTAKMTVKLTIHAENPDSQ

Assay [18] addresses GST-KIAA0147 PDZ domain 1 (Homo sapiens (Human)), Q14160.
Assay [19] concerns the target T16, GST-FLJ 10324 PDZ domain 1 [GST: P08515].
T16 chain: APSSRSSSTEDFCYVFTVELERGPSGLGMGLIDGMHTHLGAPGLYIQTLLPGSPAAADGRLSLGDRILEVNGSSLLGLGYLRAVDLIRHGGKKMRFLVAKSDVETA

Assay [20] addresses T17, GST-INADL PDZ domain 3 (Homo sapiens (Human)), Q8NI35.
T17 chain: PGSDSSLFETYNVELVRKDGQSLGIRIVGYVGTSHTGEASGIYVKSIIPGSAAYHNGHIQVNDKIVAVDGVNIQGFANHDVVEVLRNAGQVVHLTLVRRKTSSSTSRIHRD

Assay [21] deals with GST-KIAA1634 PDZ domain 5 (Homo sapiens (Human)), Q5TCQ9.
Sequence of GST-KIAA1634 PDZ domain 5 (Homo sapiens (Human)), Q5TCQ9 (Q5TCQ9 other isoform, or with tags, fused parts or gaps): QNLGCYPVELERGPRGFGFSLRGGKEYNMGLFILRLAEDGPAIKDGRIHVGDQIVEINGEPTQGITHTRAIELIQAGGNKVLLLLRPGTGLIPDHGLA
Assay [22] concerns the target GST-Atrophin-1 Interacting Protein PDZ domain 5 (Rattus norvegicus (Rat)), O88382.
Assay [23] concerns the target T18, GST-LIM Mystique PDZ domain 1 (Homo sapiens (Human)), Q96JY6.
T18 chain: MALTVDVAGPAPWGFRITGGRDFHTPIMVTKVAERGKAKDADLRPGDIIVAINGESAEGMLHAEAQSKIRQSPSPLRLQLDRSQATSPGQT

For assay [24], the target named is T19, GST-EZRIN Binding Protein 50 PDZ domain 1 (Homo sapiens (Human)), O14745.
T19 chain: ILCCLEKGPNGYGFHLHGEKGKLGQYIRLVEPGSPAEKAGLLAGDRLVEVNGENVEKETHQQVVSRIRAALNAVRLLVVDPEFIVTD

The target in assay [25] is T20, GST-EZRIN Binding Protein 50 PDZ domain 2 (Homo sapiens (Human)), O14745.
T20 chain: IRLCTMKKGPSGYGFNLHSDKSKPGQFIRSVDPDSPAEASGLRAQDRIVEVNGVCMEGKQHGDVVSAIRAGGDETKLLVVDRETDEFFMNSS

Assay [26] has as its target T21, GST-HEMBA 1003117 PDZ domain 1 (Homo sapiens (Human)), Q96JH8.
T21 chain: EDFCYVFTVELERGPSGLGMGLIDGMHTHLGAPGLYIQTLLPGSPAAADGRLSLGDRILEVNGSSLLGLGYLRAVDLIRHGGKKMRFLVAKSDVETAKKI

For assay [27], the target named is GST-BAI-1 Associated Protein PDZ domain 6 (Homo sapiens (Human)), Q96QZ7.
Sequence of GST-BAI-1 Associated Protein PDZ domain 6 (Homo sapiens (Human)), Q96QZ7 (Q96QZ7 1143-1233): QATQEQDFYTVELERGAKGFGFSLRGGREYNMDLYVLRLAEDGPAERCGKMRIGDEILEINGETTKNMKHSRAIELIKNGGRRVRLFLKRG
Assay [28] deals with T22, GST-Shank 3 PDZ domain 1 (human (hypothetical, computer cloned)), Q9BYB0.
T22 chain: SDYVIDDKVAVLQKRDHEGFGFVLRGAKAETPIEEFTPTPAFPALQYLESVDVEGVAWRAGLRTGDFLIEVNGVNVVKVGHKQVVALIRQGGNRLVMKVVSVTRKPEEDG

The target in assay [29] is T23, GST-LIM-RIL PDZ domain 1 (Homo sapiens (Human)), P50479.
T23 chain: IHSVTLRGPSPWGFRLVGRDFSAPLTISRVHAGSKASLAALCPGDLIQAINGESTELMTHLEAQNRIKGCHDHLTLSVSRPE

For assay [30], the target named is GST-PAR3 PDZ domain 3 (Homo sapiens (Human)), Q8TEW0.
Sequence of GST-PAR3 PDZ domain 3 (Homo sapiens (Human)), Q8TEW0 (Q8TEW0 579-681): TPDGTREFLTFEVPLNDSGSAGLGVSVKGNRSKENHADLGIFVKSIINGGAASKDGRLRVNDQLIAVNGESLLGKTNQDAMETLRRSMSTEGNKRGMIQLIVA
Further: key of the grades not given here.

Sequence of GST-KIAA807 [GST: P08515] (P08515 whole entry, the tested form may be a part): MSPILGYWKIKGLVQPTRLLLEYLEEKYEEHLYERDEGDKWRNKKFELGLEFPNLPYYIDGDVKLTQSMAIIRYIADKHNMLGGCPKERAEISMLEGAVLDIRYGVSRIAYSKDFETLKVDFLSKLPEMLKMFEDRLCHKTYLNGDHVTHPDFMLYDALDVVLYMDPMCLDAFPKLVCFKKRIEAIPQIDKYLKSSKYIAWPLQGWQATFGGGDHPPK
Sequence of GST-Atrophin-1 Interacting Protein PDZ domain 5 (Rattus norvegicus (Rat)), O88382 (O88382 1128-1225): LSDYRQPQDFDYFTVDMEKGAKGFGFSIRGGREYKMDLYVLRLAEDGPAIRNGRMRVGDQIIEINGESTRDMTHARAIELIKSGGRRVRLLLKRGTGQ
Sequence of GST-KIAA0147 PDZ domain 1 (Homo sapiens (Human)), Q14160 (Q14160 other isoform, or with tags, fused parts or gaps): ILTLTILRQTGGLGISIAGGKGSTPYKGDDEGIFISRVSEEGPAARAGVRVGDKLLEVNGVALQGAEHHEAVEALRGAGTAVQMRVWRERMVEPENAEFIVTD
Sequence of GST-KIAA1634 PDZ domain 1 (Homo sapiens (Human)), Q5TCQ9 (Q5TCQ9 401-502): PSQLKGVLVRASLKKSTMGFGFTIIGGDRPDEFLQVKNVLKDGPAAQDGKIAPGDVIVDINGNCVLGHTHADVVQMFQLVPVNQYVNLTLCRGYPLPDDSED

For RIAYSLLGLKDQVNTVGIPI (modifications not checked) [ephrin A2], the Classification in assay [1], in assay [2], in [3] and in [4] was 1 A450 class throughout.
On to SSPDSSYQGKGFVMSRAMYV (modifications not checked) [Nectin 2], for which the Classification in assay [5] was 2 A450 class; in assay [6], 2 A450 class; in [7] it was 1 A450 class.
For the molecule DAKLKSDGTIAAITEKETHF (modifications not checked) [GABA transporter 3], the Classification in assay [8], in assay [9], in assay [10], in assay [11], in [12] and in [13] was 1 A450 class throughout.
PVYIVQEMPPQSPANIYYKV (modifications not checked) [ephrin B1]: the Classification in assay [14] was 1 A450 class; in assay [9], 1 A450 class; in [15] it was 1 A450 class; in assay [16] it was 2 A450 class; in [13], 1 A450 class; in assay [17], 1 A450 class.
For the molecule TALRIKKTLAKMVESQDVKI (modifications not checked) [bone morphogenetic protein receptor], the Classification in assay [14], in [9], in [15] and in [17] was 1 A450 class each time.
For LASKSAEEGKQIPDSLSTDL (modifications not checked) [DOCK2], the Classification in [18] came out at 1 A450 class; in assay [8], 2 A450 class; in [19], 1 A450 class; in [9], 4 A450 class; in [20] it was 1 A450 class; in [21], 1 A450 class. Moreover, the Classification came out at 1 A450 class in assay [22]; 1 A450 class in assay [23]; 1 A450 class in assay [24]; 2 A450 class in assay [25]; 1 A450 class in assay [10]; 1 A450 class in assay [26]. Further, the Classification in assay [27] came out at 1 A450 class; in assay [3], 1 A450 class; in [13] it was 5 A450 class; in [28], 1 A450 class; in [29], 1 A450 class.
YSQPSARSEGEFKQTSSFLV (modifications not checked) [JAM (junctional adhesion molecule)]: the Classification in assay [6], in assay [20] and in assay [16] was 1 A450 class throughout.
In the case of QGDPALQDAGDSSRKEYFI (modifications not checked) [Glycophorin C], the Classification in assay [30] was 2 A450 class; in [4], 1 A450 class.
